Biological target: 6HisRsmA (RsmAxcc) (Xanthomonas citri subsp. citri strain 306) (UniProt Q8PLP9)
Experiment: EMSA
Settings: 10 mM HEPES pH 7.3, 20 mM KCl, 1 mM MgCl2, 1 mM DTT, 5% glycerol, 0.1 µg/µL yeast tRNA, 20 U RNasin, 25 °C 20 min; 5% native PAGE

Chain of 6HisRsmA (RsmAxcc) (Xanthomonas citri subsp. citri strain 306) (Q8PLP9 whole entry): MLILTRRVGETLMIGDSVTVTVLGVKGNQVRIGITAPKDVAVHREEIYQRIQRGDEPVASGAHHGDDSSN

hrpG 54-189 was tested, and the binding signal (fold less shift than hrpG 1-189) was 8.
